According to article PMC3164629:
Where a chain is given by its changes, count along the chain named.

Experiments:
[1] = target: group M consensus gp140 Env, CON-S gp140CFI, WT glycosylated (HIV-1 group M consensus); test: SPR
SPR = substrate: CON-S gp140CFI Env, natively deglycosylated with PNGase F 500 U per µg (HIV-1 group M consensus); test: SPR

B1: 2F5 reverted unmutated ancestor antibody RUA1 (antibody, V domains shown)
VH: QITLKESGPTLVKPTQTLTLTCTFSGFSLSTSGVGVGWIRQPPGKALEWLALIYWNDDKRYSPSLKSRLTITKDTSKNQVVLTMTNMDPVDTATYYCAHRRGPTTLFGVVIARGPVNGMDVWGQGTTVTVSS
VL: AIQLTQSPSSLSASVGDRVTITCRASQGISSALAWYQQKPGKAPKLLIYDASSLESGVPSRFSGSGSGTDFTLTISSLQPEDFATYYCQQFNNYPHTFGGGTKVEIK
B1 was tested, and the Kd [1] was 118 nM and the Kd (SPR) was 67 nM.

B2: 2F5 reverted unmutated ancestor antibody RUA2 (antibody, V domains shown)
VH: B1 VH with N56D, S62G
VL: B1 VL
Work on B2 yielded a Kd [1] of 4000 nM and a Kd (SPR) of 360 nM.
